The record followed here is the supplement of paper PMC7877785.

This data set is described as follows: self-splicing fitness, log relative to wild type (ln ratio); higher = more splicing; Tetrahymena group I intron in knt gene, E. coli kanamycin selection, DiMSum; sequences stand for … in CUCUCU…GGAGGGAAAAGUUAUCAGGCAUGCACCUGGUAGCUAGUCUUUAAACCAAUAGAUUGCAUCGGUUUAAAAGGCAAGACCGUCAAAUUGCGGGAAAGGGGUCAACAGCCGUUCAGUACCAAGUCUCAGGGGAAACUUUGAGAUGGCCUUGCAAAGGGUAUGGUAAUAAGCUGACGGACAUGGUCCUAACCACGCAGCCAAGUCCUAAGUCAACAGAUCUUCUGUUGAUAUGGAUGCAGUUCACAGACUAAAUGUCGGUCGGGGAAGAUGUAUUCUUCUCAUAAGAUAUAGUCGGACCUCUCCUUAAUGGGAGCUAGCGGAUGAAGUGAUGCAACACUGGAGCCGCUGGGAACUAAUUUGUAUGCGAAAGUAUAUUGAUUAGUUUUGGAGUACUCGUGGUCG
In a few lines: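 Colonies from six replicate transformations of E. coli BL21(DE3) were pooled and amplicon-sequenced on an Illumina HiSeq 2500. The library placed an intron with all eight P1ex-region nucleotides randomised inside the knt kanamycin-resistance gene on pET-22b(+), and cells grew overnight at 37°C or 30°C on LB agar with or without 25 μg/mL kanamycin (plus 100 μg/mL carbenicillin, 50 μM IPTG, 0.2% rhamnose). Fitness is the DiMSum error-weighted combination of wild-type-normalised replicate fold changes, kanamycin versus none.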

± gives the uncertainty stated by the source.

Regarding GCACAGCAAUAUUACGGGCU, the “self-splicing fitness (ln)” value runs as follows: (30 °C) -3.81 ± 0.24; (37 °C) -1.77 ± 0.12. In the case of GCACAGCAAUAUUACGGGUU, the “self-splicing fitness (ln)” value runs as follows: (30 °C) -1.17 ± 0.041; (37 °C) -0.667 ± 0.055. GCACAGCAAUAUUACGGUGU: the “self-splicing fitness (ln)” value (30 °C) was -3.58 ± 0.14 and the “self-splicing fitness (ln)” value (37 °C) is -3.45 ± 0.29. For GCACAGCAAUAUUACGUAAA the same measures were -0.808 ± 0.057 and 0.219 ± 0.077. On the same counts, the results for GCACAGCAAUAUUACGUAGC are -2.19 ± 0.089 and -1.64 ± 0.12.

With GCACAGCAAUAUUACGUCAG, the “self-splicing fitness (ln)” value reads like this: (30 °C) -2.44 ± 0.12; (37 °C) -2.48 ± 0.21. As for GCACAGCAAUAUUACGUCGA, the “self-splicing fitness (ln)” value was -0.827 ± 0.05 (30 °C) and -0.258 ± 0.062 (37 °C). As to GCACAGCAAUAUUACGUGCC, the “self-splicing fitness (ln)” value (30 °C) is -5.1 ± 0.29.

As for GCACAGCAAUAUUACGUGCG, the “self-splicing fitness (ln)” value is -2.65 ± 0.066 (30 °C) and -1.12 ± 0.066 (37 °C).

As for GCACAGCAAUAUUACGUUUC, the “self-splicing fitness (ln)” value (30 °C) is -1.61 ± 0.063 and the “self-splicing fitness (ln)” value (37 °C) is -0.982 ± 0.084. Consider GCAGAGCAAUAUUACGAAUU, for which the “self-splicing fitness (ln)” value by setting is: (30 °C) -3.99 ± 0.42; (37 °C) -2.05 ± 0.37. On the same counts, the results for GCAGAGCAAUAUUACGACGA are -2.64 ± 0.24 and -0.208 ± 0.12.

Consider GCAGAGCAAUAUUACGAUCG, for which the “self-splicing fitness (ln)” value (37 °C) is -1.33 ± 0.34. The same measure, in the same setting: then GCAGAGCAAUAUUACGCACU, with -3.43 ± 0.43.

For the sequence GCAGAGCAAUAUUACGCAUA, the “self-splicing fitness (ln)” value (30 °C) is -3.11 ± 0.22 and the “self-splicing fitness (ln)” value (37 °C) was -2.89 ± 0.24. With GCAGAGCAAUAUUACGCCAA, the “self-splicing fitness (ln)” value is -2.73 ± 0.38 (30 °C) and -2.72 ± 0.44 (37 °C). On the same counts, the results for GCAGAGCAAUAUUACGCUAU are -2.9 ± 0.33 and -1.32 ± 0.28.

Turning to GCAGAGCAAUAUUACGCUCU, the “self-splicing fitness (ln)” value (30 °C) is -3.93 ± 0.44. As to GCAGAGCAAUAUUACGGACC, the “self-splicing fitness (ln)” value is, setting by setting: (30 °C) -3.65 ± 0.37; (37 °C) -0.0809 ± 0.29. As to GCAGAGCAAUAUUACGGACG, the “self-splicing fitness (ln)” value (37 °C) was -2.96 ± 0.29. For the sequence GCAGAGCAAUAUUACGGAUU, the “self-splicing fitness (ln)” value (30 °C) was -3.62 ± 0.3.

In the case of GCAGAGCAAUAUUACGGCGA, the “self-splicing fitness (ln)” value reads like this: (30 °C) -2.12 ± 0.11; (37 °C) -1.55 ± 0.11. As to GCAGAGCAAUAUUACGGCGC, the “self-splicing fitness (ln)” value runs as follows: (30 °C) -2.3 ± 0.23; (37 °C) -1.28 ± 0.41. With GCAGAGCAAUAUUACGGGAG, the “self-splicing fitness (ln)” value (30 °C) was -2.81 ± 0.21 and the “self-splicing fitness (ln)” value (37 °C) is -2.81 ± 0.32. For GCAGAGCAAUAUUACGGGCA the same measures were -2.97 ± 0.17 and -1.67 ± 0.15. As for GCAGAGCAAUAUUACGGGGA, the “self-splicing fitness (ln)” value (30 °C) is -3.65 ± 0.37 and the “self-splicing fitness (ln)” value (37 °C) is -2.84 ± 0.36. Consider GCAGAGCAAUAUUACGGUCA, for which the “self-splicing fitness (ln)” value by setting is: (30 °C) -0.893 ± 0.21; (37 °C) -0.283 ± 0.14. In the case of GCAGAGCAAUAUUACGGUGA, the “self-splicing fitness (ln)” value by setting is: (30 °C) -2.68 ± 0.22; (37 °C) -2.53 ± 0.24.

For GCAGAGCAAUAUUACGUAGA, the “self-splicing fitness (ln)” value reads like this: (30 °C) -2.99 ± 0.15; (37 °C) -1.78 ± 0.14. On the same counts, the results for GCAGAGCAAUAUUACGUCCU are -3.22 ± 0.42 and -0.41 ± 0.27. For GCAGAGCAAUAUUACGUCGU, the “self-splicing fitness (ln)” value was -2.88 ± 0.18 (30 °C) and -0.722 ± 0.16 (37 °C). Consider GCAGAGCAAUAUUACGUGCC, for which the “self-splicing fitness (ln)” value (30 °C) is -3.66 ± 0.3 and the “self-splicing fitness (ln)” value (37 °C) is -2.94 ± 0.3.

For GCAGAGCAAUAUUACGUGCG, the “self-splicing fitness (ln)” value is -2.76 ± 0.096 (30 °C) and -0.667 ± 0.1 (37 °C). GCAGAGCAAUAUUACGUGUC: the “self-splicing fitness (ln)” value (30 °C) was -4.24 ± 0.26 and the “self-splicing fitness (ln)” value (37 °C) was -2.16 ± 0.21. On the same counts, the results for GCAGAGCAAUAUUACGUUGG are -2.91 ± 0.18 and -1.09 ± 0.19. For GCAUAGCAAUAUUACGAAAC the same measures were -2.18 ± 0.12 and -0.684 ± 0.1.

With GCAUAGCAAUAUUACGAAUG, the “self-splicing fitness (ln)” value is -2.33 ± 0.096 (30 °C) and -1.85 ± 0.12 (37 °C).

For GCAUAGCAAUAUUACGACCG, the “self-splicing fitness (ln)” value (30 °C) is -0.896 ± 0.17 and the “self-splicing fitness (ln)” value (37 °C) was 0.516 ± 0.14. On the same counts, the results for GCAUAGCAAUAUUACGACGA are -1.06 ± 0.14 and -0.364 ± 0.14.

For GCAUAGCAAUAUUACGAGUA, the “self-splicing fitness (ln)” value (30 °C) was -1.63 ± 0.15 and the “self-splicing fitness (ln)” value (37 °C) was -1.23 ± 0.12. For the sequence GCAUAGCAAUAUUACGAUCC, the “self-splicing fitness (ln)” value was -0.993 ± 0.19 (30 °C) and 0.0935 ± 0.28 (37 °C).

On to GCAUAGCAAUAUUACGAUCU, for which the “self-splicing fitness (ln)” value is -0.849 ± 0.075 (30 °C) and -0.178 ± 0.081 (37 °C). For GCAUAGCAAUAUUACGCCCC the same measures were -0.129 ± 0.26 and 0.692 ± 0.34.

For the sequence GCAUAGCAAUAUUACGCUAU, the “self-splicing fitness (ln)” value (30 °C) is -4.09 ± 0.28 and the “self-splicing fitness (ln)” value (37 °C) was -1.97 ± 0.25. Turning to GCAUAGCAAUAUUACGCUCA, the “self-splicing fitness (ln)” value was -0.595 ± 0.12 (30 °C) and -0.211 ± 0.15 (37 °C). On the same counts, the results for GCAUAGCAAUAUUACGCUCU are -1.81 ± 0.12 and -0.894 ± 0.12. Turning to GCAUAGCAAUAUUACGCUGA, the “self-splicing fitness (ln)” value (30 °C) is -2.69 ± 0.24 and the “self-splicing fitness (ln)” value (37 °C) is -1.06 ± 0.14. On the same counts, the results for GCAUAGCAAUAUUACGCUUU are -3.17 ± 0.2 and -2.88 ± 0.18. For GCAUAGCAAUAUUACGGAAA the same measures were -1.6 ± 0.31 and -1.88 ± 0.25. On the same counts, the results for GCAUAGCAAUAUUACGGAUG are -3.15 ± 0.15 and -0.657 ± 0.13. For GCAUAGCAAUAUUACGGCCA, the “self-splicing fitness (ln)” value is -1.05 ± 0.19 (30 °C) and -1.17 ± 0.21 (37 °C).

GCAUAGCAAUAUUACGUACA: the “self-splicing fitness (ln)” value reads like this: (30 °C) -1.56 ± 0.15; (37 °C) -0.421 ± 0.13. Turning to GCAUAGCAAUAUUACGUGAU, the “self-splicing fitness (ln)” value (30 °C) was -1.64 ± 0.066 and the “self-splicing fitness (ln)” value (37 °C) is -0.927 ± 0.08.

In the case of GCAUAGCAAUAUUACGUGCA, the “self-splicing fitness (ln)” value (30 °C) was -2.74 ± 0.17 and the “self-splicing fitness (ln)” value (37 °C) was -1.21 ± 0.14. As for GCAUAGCAAUAUUACGUGCU, the “self-splicing fitness (ln)” value is -3.32 ± 0.15 (30 °C) and -3.44 ± 0.26 (37 °C).

With GCAUAGCAAUAUUACGUUAG, the “self-splicing fitness (ln)” value was -2.48 ± 0.12 (30 °C) and -1.96 ± 0.15 (37 °C). As for GCAUAGCAAUAUUACGUUGG, the “self-splicing fitness (ln)” value runs as follows: (30 °C) -3.88 ± 0.22; (37 °C) -2.28 ± 0.18. For GCAUAGCAAUAUUACGUUUG the same measures were -3.21 ± 0.13 and -1.91 ± 0.15.

Turning to GCCAAGCAAUAUUACGAACA, the “self-splicing fitness (ln)” value was -2.36 ± 0.16 (30 °C) and -2.2 ± 0.17 (37 °C). GCCAAGCAAUAUUACGAUAC: the “self-splicing fitness (ln)” value is, setting by setting: (30 °C) -2.45 ± 0.17; (37 °C) -0.963 ± 0.14. Consider GCCAAGCAAUAUUACGAUUU, for which the “self-splicing fitness (ln)” value by setting is: (30 °C) -2.95 ± 0.096; (37 °C) -1.15 ± 0.09.

As to GCCAAGCAAUAUUACGCAGU, the “self-splicing fitness (ln)” value by setting is: (30 °C) -2.82 ± 0.13; (37 °C) -1.22 ± 0.14. On the same counts, the results for GCCAAGCAAUAUUACGCGAA are -1.2 ± 0.1 and -0.257 ± 0.11. For GCCAAGCAAUAUUACGCUUA, the “self-splicing fitness (ln)” value (30 °C) is -1.02 ± 0.086 and the “self-splicing fitness (ln)” value (37 °C) is -0.264 ± 0.11. For GCCAAGCAAUAUUACGGACU the same measures were -1.16 ± 0.077 and -0.389 ± 0.1. Consider GCCAAGCAAUAUUACGGAUU, for which the “self-splicing fitness (ln)” value was -1.2 ± 0.056 (30 °C) and -0.294 ± 0.08 (37 °C).

As to GCCAAGCAAUAUUACGGGAC, the “self-splicing fitness (ln)” value runs as follows: (30 °C) -3.02 ± 0.15; (37 °C) -0.694 ± 0.099. Take GCCAAGCAAUAUUACGGGCA: the “self-splicing fitness (ln)” value is -2.12 ± 0.14 (30 °C) and -0.482 ± 0.12 (37 °C). Regarding GCCAAGCAAUAUUACGUAAA, the “self-splicing fitness (ln)” value (30 °C) was -1.63 ± 0.1 and the “self-splicing fitness (ln)” value (37 °C) was -0.72 ± 0.13. GCCAAGCAAUAUUACGUGGU: the “self-splicing fitness (ln)” value by setting is: (30 °C) -3.65 ± 0.13; (37 °C) -3.27 ± 0.17. For GCCAAGCAAUAUUACGUGUG the same measures were -1.8 ± 0.07 and -0.823 ± 0.08. On the same counts, the results for GCCAAGCAAUAUUACGUUAG are -1.93 ± 0.12 and -2.64 ± 0.2. For GCCAAGCAAUAUUACGUUCU the same measures were -2.45 ± 0.081 and -1.53 ± 0.088.

Regarding GCCCAGCAAUAUUACGAAGC, the “self-splicing fitness (ln)” value reads like this: (30 °C) -2.36 ± 0.19; (37 °C) -0.479 ± 0.2. In the case of GCCCAGCAAUAUUACGAGAU, the “self-splicing fitness (ln)” value is -1.54 ± 0.12 (30 °C) and -0.957 ± 0.091 (37 °C). On to GCCCAGCAAUAUUACGAUCA, for which the “self-splicing fitness (ln)” value runs as follows: (30 °C) -1.65 ± 0.11; (37 °C) -0.633 ± 0.1. As for GCCCAGCAAUAUUACGAUGA, the “self-splicing fitness (ln)” value (30 °C) is -2.14 ± 0.18 and the “self-splicing fitness (ln)” value (37 °C) is -0.287 ± 0.14.
